This note sets out measurements from patent US12319747B2, “Methods of using anti-SP17 immunotherapeutics” (Medicovestor, Inc., priority 2023, dated 2025).

This assay deals with 33 normal human tissues. Briefly: Immunohistochemistry on a normal tissue microarray (specificity). Particulars: 33 normal tissues, 2-3 human donors per tissue. How it is done:
The specificity of the chAB2 antibody for Sp17 was determined with immunohistochemistry on a normal tissue microarray, which consisted of 33 normal tissues obtained from 2-3 human donors per tissue. The normal tissues included brain, eye, adrenal gland, hypophyseal, thyroid, parathyroid, tonsil, thymus, spleen, heart, lung, larynx, esophagus, stomach, small intestine, colon, liver, pancreas, salivary gland, kidney, bone, skeletal, skin, peripheral nerve, mesothelial, breast, ovary, endometrium, cervix, testis, and prostate.

Entries after “also recorded” stand apart in the source; their conditions may differ.

B1: chAB2: mouse-human chimeric anti-Sp17 monoclonal antibody; human VH/VL (SEQ ID NO: 3, 4) in mouse IgG2a heavy chain and mouse kappa light chain (antibody, V domains shown)
VH: QVQLQQSGAEVKKPGSSVKVSCKASGGTFSSYAISWVRQAPGQGLEWMGRIIPILGIANYAQKFQGRVTITADKSTSTAYMELSSLRSEDTAVYYCARPSEEVVAAYGAFDIWGQGTTVTVSS
VL: EIVLTQSPLSLPVRPGEPASISCRASQSLLRSDGFNYLDWYLQKPGQSPQLLVYLGSNRASGVPDRFSGSGSGTDFTLKISRVEAEDVGVYYCMQAVQTPYIFGQGTKLEIK
modifications: mouse IgG2a and kappa constant regions
For B1, the “binding to normal human tissues / cross-reactivity” value was “bound to testis and did not bind to normal tissues; also recorded: lack detectable cross-reactivity”.
